Biological target: gC1qR (C1QBP) on human T cells (human) (UniProt Q07021)
Test: cell-based or functional assay

HCV core protein (Prospec HCV-011) showed a PLA2G1B enzymatic activity on the membrane of CD4 T cells ([3H] arachidonic acid release) of 26 Fold.

“Staphylococcus aureus protein A (Sigma P6031)” was tested, and the PLA2G1B enzymatic activity on the membrane of CD4 T cells ([3H] arachidonic acid release) was 3 Fold.

Reference: patent EP4115900A1
